Data published in patent US20090092614A1 (Biogen, published 2009).
Where two headings read alike, the source gives them in different places.

What was measured:
sIGF-1R(1-903) [1] = biological target: T1, sIGF-1R(1-903) (human, UniProt P08069 31-933); experiment: ITC, 5 °C
T1 construct: also called soluble recombinant human IGF-1R ectodomain
Procedure: (§1) These protein solutions were adjusted to the concentrations listed above by dialyzing in PBS. ITC experiments were performed on an ITC200 microcalorimeter (MicroCal, LLC). […] A four minute equilibration period was used between all injections with an initial delay of 60 seconds. […] The lower limit of the protein concentrations capable of generating sufficient signal by calorimetry to measure a change in heat was ˜2-4 micromolar protein.

sIGF-1R(1-903) [2] = biological target: T1, sIGF-1R(1-903); experiment: ITC, 15 °C
Procedure: as §1

sIGF-1R(1-903) [3] = biological target: T1, sIGF-1R(1-903); experiment: ITC, 25 °C
Procedure: as §1

sIGF-1R(1-903) [4] = biological target: T1, sIGF-1R(1-903); experiment: ITC, 37 °C
Procedure: as §1

[5] = biological target: human IGF-1R (full length, on cells) (human, UniProt P08069 31-740; P08069 741-1367); experiment: cell-based or functional assay
human IGF-1R(1-903)-Fc [6] = biological target: T2, human IGF-1R(1-903)-Fc (human, UniProt P08069 31-933); experiment: blocking ELISA, competitor 320 nM IGF-1
T2 construct: Made by Biogen Idec; also called hIGF-1R-Fc; IGF-1R-Fc

human IGF-1R(1-903)-Fc [7] = biological target: T2, human IGF-1R(1-903)-Fc; experiment: blocking ELISA, competitor 640 nM IGF-2
hIGF-1R-Fc mutant SD015 [8] = biological target: T3, hIGF-1R-Fc mutant SD015 (human, UniProt P08069 31-933); experiment: SPR, Fab over captured mutant
T3 construct: Positions count without the signal peptide; also called H464E; not shown: human IgG1 Fc tag

human INSR(28-956)-His10 [9] = biological target: T4, human INSR(28-956)-His10 (human, UniProt P06213 28-956); experiment: ELISA on plate-coated rh-INSR, goat anti-human kappa-HRPO
T4 construct: range 28-956; Bought (R&D Systems); also called rh-INSR (R&D 1544-IR); INSR-His10
Procedure: (§2) ELISA assays were performed to determine specific binding of the Fab fragment antibodies to soluble IGF-1R over the insulin receptor. […] Color development was stopped by addition of 4NH₂SO₄ and optical density is measured at 450 nm using a Molecular Devices plate reader and binding curves are generated.

human INSR(28-956)-His10 [10] = biological target: T4, human INSR(28-956)-His10; experiment: ELISA, rh-INSR coated
Procedure: as §2

[11] = biological target: T5, human IGF-1R(1-902)-His10 (human, UniProt P08069 31-932); experiment: ELISA on plate-coated rh-IGF-1R, goat anti-human kappa-HRPO
T5 construct: Bought (R&D Systems); also called hIGF-1R-His10; IGF-1R-His
Procedure: as §2

human IGF-1R(1-903)-Fc [12] = biological target: T2, human IGF-1R(1-903)-Fc; experiment: ELISA on plate-coated soluble IGF-1R-Fc, goat anti-human kappa-HRP
Procedure: (§3) The absorbance was measured at 450 nm, background 540 nm for TMB using the Molecular Devices plate reader. Data was analyzed using the SOFTMAX PRO software package version 4.3 LS (Molecular Devices Corp.).

human IGF-1R(1-903)-Fc [13] = biological target: T2, human IGF-1R(1-903)-Fc; experiment: competition ELISA: biotinylated hIGF-1R-Fc on streptavidin plate, M14-G11 titrated in 20 nM human IGF-1 His (blocked ligand)
human IGF-1R(1-903)-Fc [14] = biological target: T2, human IGF-1R(1-903)-Fc; experiment: competition ELISA: biotinylated hIGF-1R-Fc on streptavidin plate, M14-G11 titrated in 320 nM human IGF-1 His (blocked ligand)
human IGF-1R(1-903)-Fc [15] = biological target: T2, human IGF-1R(1-903)-Fc; experiment: competition ELISA: biotinylated hIGF-1R-Fc on streptavidin plate, antibody titrated in 320 nM human IGF-1 His (blocked ligand), anti-His-HRP detection
hIGF-1R-Fc mutant SD008 = biological target: T6, hIGF-1R-Fc mutant SD008 (human, UniProt P08069 31-933); experiment: SPR
T6 construct: Positions count without the signal peptide; also called S257F; not shown: human IgG1 Fc tag

hIGF-1R-Fc mutant SD012 = biological target: T7, hIGF-1R-Fc mutant SD012 (human, UniProt P08069 31-933); experiment: SPR
T7 construct: Positions count without the 30-residue signal peptide; also called E303G; not shown: human IgG1 Fc tag

human IGF-1R(1-903)-Fc [16] = biological target: T2, human IGF-1R(1-903)-Fc; experiment: ELISA on plate-coated soluble IGF-1R-Fc, goat anti-human kappa-HRP; remark: listed apart in the source
Procedure: as §3

hIGF-1R-Fc mutant SD015 [17] = biological target: T3, hIGF-1R-Fc mutant SD015; experiment: KD grade of mutant hIGF-1R-Fc; S = binding to antibody was ablated by mutation
hIGF-1R-Fc mutant SD110 = biological target: T8, hIGF-1R-Fc mutant SD110 (human, UniProt P08069 31-933); experiment: as above
T8 construct: build as m36 with the substitution; also called E533H; not shown: C-terminal human IgG1 Fc tag

hIGF-1R-Fc mutant SD113 = biological target: T9, hIGF-1R-Fc mutant SD113 (human, UniProt P08069 31-933); experiment: as above
T9 construct: build as m36 with the substitutions; also called E570A I571T

hIGF-1R-Fc mutant SD102 = biological target: T10, hIGF-1R-Fc mutant SD102 (human, UniProt P08069 31-933); experiment: as above
T10 construct: build as m36 with the substitutions; also called E459A S460A

hIGF-1R-Fc mutant SD103 = biological target: T11, hIGF-1R-Fc mutant SD103 (human, UniProt P08069 31-933); experiment: as above
T11 construct: build as m36 with the substitutions; also called D461A V462T

hIGF-1R-Fc mutant SD104 = biological target: T12, hIGF-1R-Fc mutant SD104 (human, UniProt P08069 31-933); experiment: as above
T12 construct: build as m36 with the substitution; also called H464A; not shown: C-terminal human IgG1-Fc tag and its junction

hIGF-1R-Fc mutant SD108 = biological target: T13, hIGF-1R-Fc mutant SD108 (human, UniProt P08069 31-933); experiment: as above
T13 construct: build as m36 with the substitution; also called H480E; not shown: C-terminal human IgG1-Fc tag and its junction

hIGF-1R-Fc mutant SD109 = biological target: T14, hIGF-1R-Fc mutant SD109 (human, UniProt P08069 31-933); experiment: as above
T14 construct: build as m36 with the substitutions; also called Y482A R483W; not shown: C-terminal human IgG1-Fc tag and its junction

T2 sequence (P08069 31-933): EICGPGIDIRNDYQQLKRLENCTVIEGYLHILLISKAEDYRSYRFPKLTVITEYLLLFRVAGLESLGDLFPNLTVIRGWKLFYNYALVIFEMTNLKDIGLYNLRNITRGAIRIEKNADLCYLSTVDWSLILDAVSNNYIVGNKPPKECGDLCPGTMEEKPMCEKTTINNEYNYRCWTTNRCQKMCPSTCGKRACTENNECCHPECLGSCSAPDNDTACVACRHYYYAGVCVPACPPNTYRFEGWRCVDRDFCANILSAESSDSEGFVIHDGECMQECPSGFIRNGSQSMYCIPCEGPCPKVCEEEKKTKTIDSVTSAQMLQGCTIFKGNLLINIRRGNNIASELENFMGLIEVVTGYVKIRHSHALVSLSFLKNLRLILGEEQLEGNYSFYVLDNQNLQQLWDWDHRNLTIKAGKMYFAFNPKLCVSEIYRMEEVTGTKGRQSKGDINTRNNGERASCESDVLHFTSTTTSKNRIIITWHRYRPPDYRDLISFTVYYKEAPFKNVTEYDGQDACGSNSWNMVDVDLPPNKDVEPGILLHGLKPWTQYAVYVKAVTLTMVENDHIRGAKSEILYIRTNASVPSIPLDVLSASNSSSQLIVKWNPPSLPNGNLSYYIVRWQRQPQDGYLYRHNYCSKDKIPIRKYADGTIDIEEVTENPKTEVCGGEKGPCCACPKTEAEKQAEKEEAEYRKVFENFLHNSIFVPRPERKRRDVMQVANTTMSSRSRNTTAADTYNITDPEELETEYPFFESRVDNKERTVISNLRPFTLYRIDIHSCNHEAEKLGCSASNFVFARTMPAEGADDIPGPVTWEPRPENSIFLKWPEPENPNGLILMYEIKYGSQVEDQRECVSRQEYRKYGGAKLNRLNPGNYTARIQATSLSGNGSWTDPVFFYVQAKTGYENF
T1 sequence (P08069 31-933): as above
T4 sequence (P06213 other isoform, or with tags, fused parts or gaps limits assumed): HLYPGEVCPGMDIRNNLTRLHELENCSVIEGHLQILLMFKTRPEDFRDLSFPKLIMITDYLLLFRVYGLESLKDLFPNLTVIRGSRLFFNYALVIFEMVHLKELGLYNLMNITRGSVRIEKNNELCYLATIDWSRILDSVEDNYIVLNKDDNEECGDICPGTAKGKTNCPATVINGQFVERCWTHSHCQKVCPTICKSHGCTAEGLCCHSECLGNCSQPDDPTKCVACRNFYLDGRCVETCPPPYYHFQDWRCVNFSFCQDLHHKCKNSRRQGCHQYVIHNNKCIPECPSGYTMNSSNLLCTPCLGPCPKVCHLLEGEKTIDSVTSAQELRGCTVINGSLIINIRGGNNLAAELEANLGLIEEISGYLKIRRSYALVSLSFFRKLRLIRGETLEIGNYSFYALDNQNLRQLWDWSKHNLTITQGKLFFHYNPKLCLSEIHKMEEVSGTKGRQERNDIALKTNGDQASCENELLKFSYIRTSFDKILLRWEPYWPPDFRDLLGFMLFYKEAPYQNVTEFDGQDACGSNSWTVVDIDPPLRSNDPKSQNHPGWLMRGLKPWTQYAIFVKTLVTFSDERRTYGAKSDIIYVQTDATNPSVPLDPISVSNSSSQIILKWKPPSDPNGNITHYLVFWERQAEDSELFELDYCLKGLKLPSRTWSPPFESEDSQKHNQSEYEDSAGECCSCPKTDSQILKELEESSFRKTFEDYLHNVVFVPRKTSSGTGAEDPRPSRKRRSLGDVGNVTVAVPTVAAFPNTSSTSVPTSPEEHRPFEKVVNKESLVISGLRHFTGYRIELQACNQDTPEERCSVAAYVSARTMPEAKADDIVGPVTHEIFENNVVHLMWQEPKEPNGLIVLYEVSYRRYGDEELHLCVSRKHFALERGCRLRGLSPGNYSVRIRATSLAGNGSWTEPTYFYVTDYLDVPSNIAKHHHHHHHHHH
T3 sequence (P08069 other isoform, or with tags, fused parts or gaps mutant): as the sequence (P08069 31-933) above, with H464E counted along it
T8 sequence (P08069 other isoform, or with tags, fused parts or gaps mutant limits assumed): as the sequence (P08069 31-933) above, with E533H counted along it

B1: M13-C06.G4.P.agly (antibody, human IgG4 S228P, kappa, V domains shown)
VH: EVQLLESGGGLVQPGGSLRLSCAASGFTFSIYRMQWVRQAPGKGLEWVSGISPSGGTTWYADSVKGRFTISRDNSKNTLYLQMNSLRAEDTAVYYCARWSGGSGYAFDIWGQGTMVTVSS
VL: DIQMTQSPLSLSASVGDRVTITCQASRDIRNYLNWYQQKPGKAPKLLIYDASSLQTGVPSRFGGSGSGTDFSFTIGSLQPEDIATYYCQQFDSLPHTFGQGTKLEIKR
notes: Aglycosylated human IgG4 (S228P, T299A, EU numbering), kappa; also called M13-C06_Ab; Eu-C06
sIGF-1R(1-903) [1]
  stoichiometry of binding (N): 0.89
  ΔH°: -11.3 kcal/mol
sIGF-1R(1-903) [2]
  stoichiometry of binding (N): 0.98
  ΔH°: -14.4 kcal/mol
sIGF-1R(1-903) [3]
  stoichiometry of binding (N): 0.98
  ΔH°: -20.1 kcal/mol
sIGF-1R(1-903) [4]
  stoichiometry of binding (N): 0.97
  ΔH°: -29.2 kcal/mol
[5]
  Inhibition of IGF-1 stimulated phosphorylation of IGF-1R (IC50 nM): < 0.13 nM
  Inhibition of IGF-2 stimulated phosphorylation of IGF-1R (IC50 nM): < 0.63 nM
Human IGF-1R(1-903)-Fc [6]
  % IGF-1 inhibition upon antibody saturation: 25%
Human IGF-1R(1-903)-Fc [7]
  % IGF-2 inhibition upon antibody saturation: 16%

B2: M13-C06 Fab (Fab, V domains shown)
VH: EVQLLESGGGLVQPGGSLRLSCAASGFTFSIYRMQWVRQAPGKGLEWVSGISPSGGTTWYADSVKGRFTISRDNSKNTLYLQMNSLRAEDTAVYYCARWSGGSGYAFDIWGQGTMVTVSS
VL: DIQMTQSPLSLSASVGDRVTITCQASRDIRNYLNWYQQKPGKAPKLLIYDASSLQTGVPSRFGGSGSGTDFSFTIGSLQPEDIATYYCQQFDSLPHTFGQGTKLEIK
notes: Human kappa Fab from a phage library
hIGF-1R-Fc mutant SD015 [8]
  Biacore Relative RUmax: 0.04

B3: M12-G04 Fab (Fab, V domains shown)
VH: EVQLLESGGGLVQPGGSLRLSCAASGFTFSKYTMHWVRQAPGKGLEWVSSIVSSGGWTDYADSVKGRFTISRDNSKNTLYLQMNSLRAEDTAVYYCARDRSIAAAGTGWSVSFVDWFDPWGQGTLVTVSS
VL: DIQMTQSPLSLSASVGDRVTITCRASQSINGYLNWYQQKPGKAPNLLIYATSSLQSGVPSRFSGSGSGTDFTLTISSLQPEDFATYYCQQSYSTPPYTFGQGTKLEIK
notes: as for B2
Human INSR(28-956)-His10 [9]
  binding result: no binding (tested: about 5000 nM (baseline markers overlap))

B4: M12-E01 Fab (Fab, V domains shown)
VH: EVQLLESGGGLVQPGGSLRLSCAASGFTFSPYSMLWVRQAPGKGLEWVSSIGSSGGSTRYADSVKGRFTISRDNSKNTLYLQMNSLRAEDTAMYYCARVRGILHYDILIGRNLYYYYMDVWGKGTTVTVSS
VL: QYELTQPPSVSEAPRQRVTISCSGSSSNIGNNAINWYQQLPGKPPKLLIYYDDLLPSGVSDRFSGSKSGTSGSLAISGLQSEDEADYYCAAWDDNLNGVIFGGGTKLTVL
notes: Human lambda Fab from a phage library
Human INSR(28-956)-His10 [10]
  binding result: no binding (tested: 2 µM)

B5: M14-B01 Fab (Fab, V domains shown)
VH: EVQLLESGGGLVQPGGSLRLSCAASGFTFSNYHMAWVRQAPGKGLEWVSVISPTGGRTTYADSVKGRFTISRDNSKNTLYLQMNSLRAEDTATYYCARAGYSYGYGYFDYWGQGTLVTVSS
VL: DIQMTQFPATLSVSPGERATLSCRASQSVMRNLAWYQQKPGQPPRLLIYGASKRATGIPARFSGSGSGTAFTLTISNLEPEDFAVYYCHQRSTWPLGTFGPGTKLEAK
notes: as for B2
Human INSR(28-956)-His10 [9]
  binding result: no binding
[11]
  EC50 (read off the curve): ~5 nM

B6: M14-G11.G4.P.agly (antibody, human IgG4 S228P, kappa, V domains shown)
VH: EVQLLESGGGLVQPGGSLRLSCAASGFTFSNYPMYWVRQAPGKGLEWVSRISSSGGRTVYADSVKGRFTISRDNSKNTLYLQMNSLRAEDTAVYYCARDRWSRSAAEYGLGGYWGQGTLVTVSS
VL: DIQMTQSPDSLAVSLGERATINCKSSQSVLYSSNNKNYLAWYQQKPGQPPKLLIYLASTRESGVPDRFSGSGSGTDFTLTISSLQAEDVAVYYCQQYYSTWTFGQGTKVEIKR
notes: Aglycosylated human IgG4 (S228P, T299A), kappa; also called M14-G11_Ab; Biotin-G11
sIGF-1R(1-903) [1]
  stoichiometry of binding (N): 0.9
  ΔH°: -6.7 kcal/mol
sIGF-1R(1-903) [3]
  stoichiometry of binding (N): 0.91
  ΔH°: -26.6 kcal/mol
sIGF-1R(1-903) [4]
  stoichiometry of binding (N): 0.7
  ΔH°: -39.5 kcal/mol
Human IGF-1R(1-903)-Fc [6]
  % IGF-1 inhibition upon antibody saturation: 1%
Human IGF-1R(1-903)-Fc [7]
  % IGF-2 inhibition upon antibody saturation: 1%
Human IGF-1R(1-903)-Fc [12]
  EC50 (read off the curve): ~0.05 nM
Human IGF-1R(1-903)-Fc [13]
  IC50 (read off the curve): ~2 nM
Human IGF-1R(1-903)-Fc [14]
  IC50 (read off the curve): ~6 nM
Human IGF-1R(1-903)-Fc [15]
  IC50 (read off the curve): ~6 nM

B7: M14-G11 Fab (Fab, V domains shown)
VH: EVQLLESGGGLVQPGGSLRLSCAASGFTFSNYPMYWVRQAPGKGLEWVSRISSSGGRTVYADSVKGRFTISRDNSKNTLYLQMNSLRAEDTAVYYCARDRWSRSAAEYGLGGYWGQGTLVTVSS
VL: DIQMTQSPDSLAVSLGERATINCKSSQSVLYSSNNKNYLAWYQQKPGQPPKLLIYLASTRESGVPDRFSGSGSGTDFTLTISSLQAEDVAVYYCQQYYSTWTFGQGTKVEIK
notes: Human kappa Fab (phage library, or papain digest of the full-length antibody)
hIGF-1R-Fc mutant SD008
  fold loss in affinity against wild type: ~3 fold
hIGF-1R-Fc mutant SD012
  fold loss in affinity against wild type: ~3 fold

B8: M14-G11.G4.P (antibody, human IgG4, V domains shown)
VH: EVQLLESGGGLVQPGGSLRLSCAASGFTFSNYPMYWVRQAPGKGLEWVSRISSSGGRTVYADSVKGRFTISRDNSKNTLYLQMNSLRAEDTAVYYCARDRWSRSAAEYGLGGYWGQGTLVTVSS
VL: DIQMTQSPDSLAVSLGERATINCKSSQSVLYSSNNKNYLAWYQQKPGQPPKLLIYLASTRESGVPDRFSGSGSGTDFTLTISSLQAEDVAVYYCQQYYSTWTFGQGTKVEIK
notes: Full-length human IgG4.P, kappa; also called M14.G11.P; G4 version of M14-G11
Human IGF-1R(1-903)-Fc [16]
  EC50 (read off the curve): ~0.05 nM

B9: M14-C03.G4.P.agly (antibody, human IgG4 S228P, kappa, V domains shown)
VH: EVQLLESGGGLVQPGGSLRLSCAASGFTFSKYMMSWVRQAPGKGLEWVSYISPSGGLTWYADSVKGRFTISRDNSKNTLYLQMNSLRAEDTAVYYCARDGARGYGMDVWGQGTTVTVSS
VL: DIQMTQSPATLSLSPGERATLSCRASQSVSSYLAWYQQKPGQAPRLLIYDASNRATGIPARFSGSGSGTDFTLTISSLEPEDFAVYYCQQRSNWPPEVTFGPGTKVDIKR
notes: Aglycosylated human IgG4 (S228P, T299A), kappa; also called M14-C03_Ab
Human IGF-1R(1-903)-Fc [6]
  % IGF-1 inhibition upon antibody saturation: 19%
Human IGF-1R(1-903)-Fc [7]
  % IGF-2 inhibition upon antibody saturation: 21%
hIGF-1R-Fc mutant SD015 [17]
  binding result: no binding
hIGF-1R-Fc mutant SD110
  binding result: no binding
hIGF-1R-Fc mutant SD113
  binding result: no binding
hIGF-1R-Fc mutant SD102
  binding result: no binding
hIGF-1R-Fc mutant SD103
  binding result: no binding
hIGF-1R-Fc mutant SD104
  binding result: no binding
hIGF-1R-Fc mutant SD108
  binding result: no binding
hIGF-1R-Fc mutant SD109
  binding result: no binding
